Measured values reported in paper PMC9757077, “The B. subtilis Rok protein is an atypical H-NS-like protein irresponsive to physico-chemical cues”.

Experiments:
Rok [1] = target: T1, Rok (Bacillus subtilis 168, UniProt O34857 1-191); experiment: TPM; conditions: Hill n=6.5 ± 0.4; 50 mM KCl; MST: 10 mM Tris-HCl pH 8, 150 mM KCl, 5% glycerol, 0.05% Tween20, 0.08 mg/ml acetylated BSA, RT, 40 nM DNA; TPM: 50 mM KCl; bridging: 50 mM KCl …
T1 sequence: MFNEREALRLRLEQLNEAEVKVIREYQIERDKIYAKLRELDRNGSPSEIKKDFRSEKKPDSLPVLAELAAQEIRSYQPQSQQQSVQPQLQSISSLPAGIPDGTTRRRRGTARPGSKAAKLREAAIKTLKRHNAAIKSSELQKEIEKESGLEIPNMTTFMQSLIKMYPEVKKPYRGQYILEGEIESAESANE

[2] = system: Rok Δ75-96 (Bacillus subtilis 168); experiment: TPM; conditions: Hill n=5.7 ± 0.9; 50 mM KCl; MST: 10 mM Tris-HCl pH 8, 150 mM KCl, 5% glycerol, 0.05% Tween20, 0.08 mg/ml acetylated BSA, RT, 40 nM DNA; TPM: 50 mM KCl; bridging: 50 mM KCl …
[3] = target: Rok with a C-terminal His-tag (Rok-6xHis) (B. subtilis 168) (UniProt O34857)
Rok [4] = target: T1, Rok; experiment: bridging pull-down; 0.27 uM Rok, bait N1; minimal bridged length; MST: 10 mM Tris-HCl pH 8, 150 mM KCl, 5% glycerol, 0.05% Tween20, 0.08 mg/ml acetylated BSA, RT, 40 nM DNA; TPM: 50 mM KCl; bridging: 50 mM KCl, 25 C; conditions: protein: recombinant; chain copies: 2; label: 32P; blunt
Rok [5] = target: T1, Rok; experiment: MST; 10 mM MgCl2; MST: 10 mM Tris-HCl pH 8, 150 mM KCl, 5% glycerol, 0.05% Tween20, 0.08 mg/ml acetylated BSA, RT, 40 nM DNA; TPM: 50 mM KCl; bridging: 50 mM KCl, 25 C; conditions: protein: recombinant; chain copies: 2; label: 5'-Cy5 top strand; blunt
Rok [6] = target: T1, Rok; experiment: MST; no MgCl2; McGhee-von Hippel n=30 bp; MST: 10 mM Tris-HCl pH 8, 150 mM KCl, 5% glycerol, 0.05% Tween20, 0.08 mg/ml acetylated BSA, RT, 40 nM DNA; TPM: 50 mM KCl; bridging: 50 mM KCl, 25 C; conditions: protein: recombinant; chain copies: 2; label: 5'-Cy5 top strand; blunt
Rok [7] = target: T1, Rok; experiment: MST; up to 35 mM MgCl2; MST: 10 mM Tris-HCl pH 8, 150 mM KCl, 5% glycerol, 0.05% Tween20, 0.08 mg/ml acetylated BSA, RT, 40 nM DNA; TPM: 50 mM KCl; bridging: 50 mM KCl, 25 C; conditions: protein: recombinant; chain copies: 2; label: 5'-Cy5 top strand; blunt

Molecule: 685 bp AT-rich (32% GC) DNA
- K half (Rok [1]): 6.1 nM
- K half [2]: 8.8 nM

Molecule: small Rok (sRok) (natural protein)
- DNA recovery (%) in the DNA bridging assay with different Rok:sRok ratios (total protein 0.5 uM, 50 mM KCl + 1 mM MgCl2, 25°C); value at 20% sRok; Rok here is the untagged protein [3]: 40%

B1: 100 bp prey (dsDNA)
DNA 1: GATATATGGACTCTTAGTGGCAAATATATAATGTATAAGTTCTGGAGTAGTATGGTAATAACTATTTTATTTTCGATAGCTTGAATGTTTATTTTCCCAG
DNA 2: CTGGGAAAATAAACATTCAAGCTATCGAAAATAAAATAGTTATTACCATACTACTCCAGAACTTATACATTATATATTTGCCACTAAGAGTCCATATATC
- binding result (Rok [4]): binds

B2: MST aspecific 78 bp (dsDNA)
DNA 1: CGGCGCAAATTCGTGACCAGTTGCATCAGCTGCGTGAGCTGTTTATCGCAGCATCGTAACAGGATAGTGAAGAAGACT
DNA 2: AGTCTTCTTCACTATCCTGTTACGATGCTGCGATAAACAGCTCACGCAGCTGATGCAACTGGTCACGAATTTGCGCCG
- Kd (Rok [5]): 34.6 ± 8 µM
- Kd (Rok [6]): 79.4 ± 20 µM

B3: MST specific 78 bp (TACTA) (dsDNA)
DNA 1: CGGCGCAAATTCGTGACCAGTTGCATCAGCTACTAGAGCTGTTTATCGCAGCATCGTAACAGGATAGTGAAGAAGACT
DNA 2: AGTCTTCTTCACTATCCTGTTACGATGCTGCGATAAACAGCTCTAGTAGCTGATGCAACTGGTCACGAATTTGCGCCG
- Kd (Rok [7]): ~100 µM
